# According to paper PMC5024103, “Catalytic Thr or Ser Residue Modulates Structural Switches in 2-Cys Peroxiredoxin by Distinct Mechanisms” (Scientific Reports, 2016):
# Numbering of substitutions follows the chain as printed. Numbers in names are those of the source.
# B1: Tsa2^WT (typical 2-Cys peroxiredoxin Tsa2 from S. cerevisiae) (enzyme)
# chain: MVAEVQKQAPPFKKTAVVDGIFEEISLEKYKGKYVVLAFVPLAFSFVCPTEIVAFSDAAKKFEDQGAQVLFASTDSEYSLLAWTNLPRKDGGLGPVKVPLLADKNHSLSRDYGVLIEKEGIALRGLFIIDPKGIIRHITINDLSVGRNVNEALRLVEGFQWTDKNGTVLPCNWTPGAATIKPDVKDSKEYFKNANN
# notes: Tsa2, typical 2-Cys peroxiredoxin of Saccharomyces cerevisiae (86% identity with Tsa1; Ser45 in place of Thr44 of Tsa1); Decamer in both redox states by SEC; source: E. coli BL21 (DE3), pPROEx/tsa2, purified (IMAC on HisTrap, PD10 desalting); not shown: His tag (from the vector pPROEx); copies: 10
# B2: Tsa1 (Tsa1^WT) (Saccharomyces cerevisiae S288C) (protein)
# chain: MVAQVQKQAPTFKKTAVVDGVFDEVSLDKYKGKYVVLAFIPLAFTFVCPTEIIAFSEAAKKFEEQGAQVLFASTDSEYSLLAWTNIPRKEGGLGPINIPLLADTNHSLSRDYGVLIEEEGVALRGLFIIDPKGVIRHITINDLPVGRNVDEALRLVEAFQWTDKNGTVLPCNWTPGAATIKPTVEDSKEYFEAANK
# notes: pET15b/Tsa1, His-tagged (HisTrap IMAC); homodimer ~48 kDa, decamer ~240 kDa
# B3: Tsa1^T44V (enzyme)
# chain: B2 chain with T45V
# B4: Tsa1^Y77A (enzyme)
# chain: B2 chain with Y78A
# B5: Tsa1 (Tsa1^WT) (Saccharomyces cerevisiae S288C; T45S) (protein)
# chain: B2 chain with T45S
# notes: as for B2
# B6: Tsa1 (Tsa1^WT) (Saccharomyces cerevisiae S288C; T45A) (protein)
# chain: B2 chain with T45A
# notes: as for B2
# B7: Tsa1^S78D (enzyme)
# chain: B2 chain with S79D
# How the values were obtained:
# [1] = molecular target: Tsa1^T44S (S. cerevisiae) (UniProt P34760); test: SEC; analytical HPLC, Phenomenex BioSep-SEC-S3000, 50 uM enzyme, 100 mM Tris-HCl pH 7.4, 50 mM NaCl, 1 mL/min; samples reduced with 5 mM TCEP for 30 min at 25 C; dimers to decamer
# [2] = molecular target: Tsa1^T44S (S. cerevisiae) (UniProt P34760); test: SEC; analytical HPLC, Phenomenex BioSep-SEC-S3000, 50 uM enzyme, 100 mM Tris-HCl pH 7.4, 50 mM NaCl, 1 mL/min; samples reduced with TCEP and then oxidised (disulfide) with 1.2 molar equivalents of H2O2 for 30 min at 25 C; dimers to decamer
# [3] = molecular target: Tsa1^WT (typical 2-Cys peroxiredoxin Tsa1 from S. cerevisiae) (S. cerevisiae) (UniProt P34760); test: SEC; analytical HPLC, Phenomenex BioSep-SEC-S3000, 50 uM enzyme, 100 mM Tris-HCl pH 7.4, 50 mM NaCl, 1 mL/min; samples reduced with 5 mM TCEP for 30 min at 25 C; dimers to decamer
# [4] = molecular target: Tsa1^T44A (S. cerevisiae) (UniProt P34760); test: as above
# [5] = molecular target: the molecule itself; test: as above
# [6] = molecular target: the molecule itself; test: SEC; analytical HPLC, Phenomenex BioSep-SEC-S3000, 50 uM enzyme, 100 mM Tris-HCl pH 7.4, 50 mM NaCl, 1 mL/min; samples reduced with TCEP and then oxidised (disulfide) with 1.2 molar equivalents of H2O2 for 30 min at 25 C; dimers to decamer
# [7] = substrate: CC(C)(OO)c1ccccc1; test: Trx system coupled assay, NADPH oxidation; type: biochemical, Saccharomyces cerevisiae; conditions: Trx1 2 μM, TrxR1 0.3 μM, NADPH 150 μM, HEPES pH 7.4, 30 °C
# Excerpt: Trx system coupled assay, NADPH oxidation on Tsa1 (Tsa1^WT) | In the case of cumene hydroperoxide (CHP) reduction, Tsa1^WT and Tsa1^T44S also presented similar enzymatic parameters
# [8] = substrate: CC(C)(OO)c1ccccc1; test: Trx system coupled assay, NADPH oxidation; type: biochemical, Saccharomyces cerevisiae; conditions: Trx1 2 μM, TrxR1 0.3 μM, NADPH 150 μM, HEPES pH 7.4, 30 °C; remark: listed apart in the source
molecule,measurement,setting,value
Tsa1^T44S (from UniProt P34760 1-196) (enzyme),stoichiometry N,[1],10
same,stoichiometry N,[2],10
Tsa1^WT (typical 2-Cys peroxiredoxin Tsa1 from S. cerevisiae) (from UniProt P34760 1-196) (enzyme),stoichiometry N,[3],10
Tsa1^T44A (from UniProt P34760 1-196) (enzyme),stoichiometry N,[4],10
B1,stoichiometry N,[5],10
same,stoichiometry N,[6],10
B2,Km,[7],8.80 ± 0.05 µM
same,kcat,[7],0.7 ± 0.1 s⁻¹
same,kcat/Km,[7],82000 ± 11000 M⁻¹ s⁻¹
B3,stoichiometry N,[6],2
B4,stoichiometry N,[5],2
same,stoichiometry N,[6],2
B5,Km,[7],9.9 ± 1.2 µM
same,kcat,[7],0.7 ± 0.1 s⁻¹
same,kcat/Km,[7],75000 ± 9000 M⁻¹ s⁻¹
B6,Km,[8],300 µM
B7,stoichiometry N,[5],2
same,stoichiometry N,[6],2
